Positions count from the first letter of the chain named.
B1: unnamed (protein)
chain: MANPYERGPAPTTSSIEASRGPFAIASVTVSRSSVSGFGGGTIYYPRDTSEGTFGAVAIAPGFTADEGSMAWYGPRIASQGFVVFTIDTITRLDQPDSRGRQLLAALDYLTQRSSVRSRIDSSRLAVMGHSMGGGGSLEASVSRPSLKAAIPLTPWNLKKNWRDVRVPTLIVGAESDSIASVRTHAEPFYESIPSTTNKAYLELNNATHFAPNISNTTIAKYSISWLKRFVDNDTRYEQFLCPPPRPDRDIEEYRSTCPH
B2: unnamed (protein)
chain: MANPYERGPNPTDALLEARSGPFSVSEENVSRLSASGFGGGTIYYPRENNTYGAVAISPGYTGTEASIAWLGERIASHGFVVITIDTITTLDQPDSRAEQLNAALNHMINRASSTVRSRIDSSRLAVMGHSMGGGGSLRLASQRPDLKAAIPLTPWHLNKNWSSVRVPTLIIGADLDTIAPVLTHARPFYNSLPTSISKAYLELDGATHFAPNIPNKIIGKYSVAWLKRFVDNDTRYTQFLCPGPRDGLFGEVEEYRSTCPF
B3: unnamed (protein)
chain: B2 chain with R166T, L183A, R187K, T195S
B4: unnamed (protein)
chain: MENPYERGPDPTESSIEAVRGPFAVAQTTVSRLQADGFGGGTIYYPTDTSQGTFGAVAISPGFTAGQESIAWLGPRIASQGFVVITIDTITRLDQPDSRGRQLQAALDHLRTNSVVRNRIDPNRMAVMGHSMGGGGALSAAANNTSLEAAIPLQGWHTRKNWSSVRTPTLVVGAQLDTIAPVSSHSEAFYNSLPSDLDKAYMELRGASHFVSNTPDTTTAKYSIAWLKRFVDNDLRYEQFLCPAPDDFAISEYRATCPF
B5: unnamed (protein)
chain: B4 chain with E2A, F210L, N233D, A255S
B6: unnamed (protein)
chain: MDGVLWRVRTAALMAALLALAAWALVWASPSVEAQSNPYQRGPNPTRSALTADGPFSVATYTVSRLSVSGFGGGVIYYPTGTSLTFGGIAMSPGYTADASSLAWLGRRLASHGFVVLVINTNSRFDYPDSRASQLSAALNYLRTSSPSAVRARLDANRLAVAGHSMGGGGTLRIAEQNPSLKAAVPLTPWHTDKTFNTSVPVLIVGAEADTVAPVSQHAIPFYQNLPSTTPKVYVELDNASHFAPNSNNAAISVYTISWMKLWVDNDTRYRQFLCNVNDPALSDFRTNNRHCQ
B7: unnamed (protein)
chain: MANPYERGPDPTVQSIEAVRGPFSVSETNVSRLVVTGFGGGTIYYPRDTSQGTFGAVAIAPGFTASEGSMAWYGPRIASQGFVVFTIDTLTRLDQPDSRGRQLLAALDYLTQRSSVRSRIDSSRLAVMGHSMGGGGSLEASESRPSLKASIPLTPWNLKKNWRNNRVPTLIVGAENDSIASVRTHAEPFYESIPSTTNKAYLELNNATHFAPNISNTTIAKYSISWLKRFVDNDTRYEQFLCPPPRPDRDIEEYRCTCPY
B8: unnamed (protein)
chain: MDNPYERGPDPTTQSVEAARGPYAVSQITVGGQFGSYSGGTIYYPTSTADGKFGAVAIAPGFLSFQSSVAWLGPRLASQGFVVMTIDTGTIFDQPAQRGDQLLDALDFLTQRSSVKDRIDPNRLAVAGWSMGGGGSLEAAADRPSLKAAIPMAGWNLNTNWSRLTTPVLVVGVQNDLIAPVGSHSEPFYNSIRSEKAYLELAGGSHFTVTSANTPQAKLMISWLKRFVDNDTRYEQFICPGPSRGFSVSEYRSTCPF
B9: unnamed (protein)
chain: B8 chain with A49T, L76I, G182A, S183M
B10: unnamed (protein)
chain: B8 chain with D2E, L76I, M131W, G182A, S183M, F257Y

The proteins below were run on PET (assay: Proxy for plastic degradation [Weight/mass loss]). Conditions: pH 8; 45 °C.

Protein | Proxy for plastic degradation
B1 | 1%
B2 | 0.5%
B7 | 2%
B8 | 1%
B9 | 2%
B10 | 0.5%

Same assay, conditions: pH 8; 50 °C

Protein | Proxy for plastic degradation
B1 | 2.5%
B2 | 1%
B7 | 2.5%
B8 | 1.5%
B9 | 3%
B10 | 1%

Same assay, conditions: pH 8; 55 °C

Protein | Proxy for plastic degradation
B1 | 1%
B2 | 1%
B7 | 1%
B8 | 1%
B9 | 5%
B10 | 0.5%

Same assay, conditions: pH 8; 60 °C

Protein | Proxy for plastic degradation
B1 | 0.5%
B2 | 1%
B7 | 0.5%
B8 | 1%
B9 | 8%
B10 | 0.5%

What follows are proteins tested on gfPET (assay: Proxy for plastic degradation [Released monomer concentration (HPLC/LC-MS) (TPA+MHET+BHET)]). Conditions: 40 °C.

Protein | Proxy for plastic degradation
B1 | 0 mmol/h
B3 | 0 mmol/h
B4 | 0 mmol/h
B7 | 0 mmol/h
B8 | 0 mmol/h
B9 | 0 mmol/h
B10 | 0 mmol/h

Same assay, conditions: 50 °C

Protein | Proxy for plastic degradation
B1 | 0.38 mmol/h
B3 | 0.05 mmol/h
B4 | 0.08 mmol/h
B7 | 0.2 mmol/h
B8 | 0.2 mmol/h
B9 | 0.1 mmol/h
B10 | 0.1 mmol/h

Same assay, conditions: 55 °C

Protein | Proxy for plastic degradation
B1 | 0.2 mmol/h
B3 | 0.08 mmol/h
B4 | 0.11 mmol/h
B7 | 0.22 mmol/h
B8 | 0.21 mmol/h
B9 | 0.18 mmol/h
B10 | 0.13 mmol/h

Same assay, conditions: 60 °C

Protein | Proxy for plastic degradation
B1 | 0.1 mmol/h
B3 | 0.18 mmol/h
B4 | 0.18 mmol/h
B7 | 0.19 mmol/h
B8 | 0.1 mmol/h
B9 | 0.1 mmol/h
B10 | 0.05 mmol/h

Same assay, conditions: 65 °C

Protein | Proxy for plastic degradation
B1 | 0.05 mmol/h
B3 | 0.2 mmol/h
B4 | 0.25 mmol/h
B7 | 0.1 mmol/h
B8 | 0 mmol/h
B9 | 0 mmol/h
B10 | 0 mmol/h

Same assay, conditions: 70 °C

Protein | Proxy for plastic degradation
B1 | 0.05 mmol/h
B3 | 0.2 mmol/h
B4 | 0.3 mmol/h
B7 | 0.08 mmol/h
B8 | 0 mmol/h
B9 | 0 mmol/h
B10 | 0 mmol/h

Same assay, conditions: 75 °C

Protein | Proxy for plastic degradation
B1 | 0.05 mmol/h
B3 | 0.08 mmol/h
B4 | 0.38 mmol/h
B7 | 0.06 mmol/h
B8 | 0 mmol/h
B9 | 0 mmol/h
B10 | 0 mmol/h

Same assay, conditions: 80 °C

Protein | Proxy for plastic degradation
B1 | 0.05 mmol/h
B3 | 0.05 mmol/h
B4 | 0.41 mmol/h
B7 | 0.05 mmol/h
B8 | 0 mmol/h
B9 | 0 mmol/h
B10 | 0 mmol/h

Same assay, conditions: 85 °C

Protein | Proxy for plastic degradation
B1 | 0.05 mmol/h
B3 | 0 mmol/h
B4 | 0.38 mmol/h
B7 | 0.05 mmol/h
B8 | 0 mmol/h
B9 | 0 mmol/h
B10 | 0 mmol/h

These proteins were tested on PET (assay: Proxy for plastic degradation [Weight/mass loss]). Conditions: pH 8; 65 °C.

Protein | Proxy for plastic degradation
B2 | 15%
B4 | 15%

Same assay, conditions: pH 8; 70 °C

Protein | Proxy for plastic degradation
B2 | 18%
B4 | 20%

Same assay, conditions: pH 8; 75 °C

Protein | Proxy for plastic degradation
B2 | 15%
B4 | 18%

Each protein was assayed on gfPET (assay: Proxy for plastic degradation [Weight/mass loss]). Conditions: pH 8; 65 °C.

Protein | Proxy for plastic degradation
B3 | 7%
B4 | 18%

Same assay, conditions: pH 8; 70 °C

Protein | Proxy for plastic degradation
B3 | 8%
B4 | 18%

Same assay, conditions: pH 8; 75 °C

Protein | Proxy for plastic degradation
B3 | 2%
B4 | 18%

Each protein was assayed on PET (assay: Proxy for plastic degradation [Weight/mass loss]). Conditions: pH 8; 65 °C; part of the chain shown.

Protein | Proxy for plastic degradation
B5 | 75%

Same assay, conditions: pH 8; 70 °C; part of the chain shown

Protein | Proxy for plastic degradation
B5 | 95%

Same assay, conditions: pH 8; 75 °C; part of the chain shown

Protein | Proxy for plastic degradation
B5 | 60%

What follows are proteins tested on gfPET (assay: Proxy for plastic degradation [Weight/mass loss]). Conditions: pH 8; 65 °C; part of the chain shown.

Protein | Proxy for plastic degradation
B5 | 77%

Same assay, conditions: pH 8; 70 °C; part of the chain shown

Protein | Proxy for plastic degradation
B5 | 90%

Same assay, conditions: pH 8; 75 °C; part of the chain shown

Protein | Proxy for plastic degradation
B5 | 58%

These proteins were tested on PET (assay: Proxy for plastic degradation [Released monomer concentration (HPLC/LC-MS) (TPA+MHET)]). Conditions: pH 8; 0 h; part of the chain shown.

Protein | Proxy for plastic degradation
B5 | 0 mM

Same assay, conditions: pH 8; 4 h; part of the chain shown

Protein | Proxy for plastic degradation
B5 | 15 mM

Same assay, conditions: pH 8; 8 h; part of the chain shown

Protein | Proxy for plastic degradation
B5 | 26 mM

Same assay, conditions: pH 8; 16 h; part of the chain shown

Protein | Proxy for plastic degradation
B5 | 50 mM

The proteins below were run on gfPET (assay: Proxy for plastic degradation [Released monomer concentration (HPLC/LC-MS) (TPA+MHET+BHET)]). Conditions: 40 °C; part of the chain shown.

Protein | Proxy for plastic degradation
B5 | 0 mmol/h

Same assay, conditions: 50 °C; part of the chain shown

Protein | Proxy for plastic degradation
B5 | 0.45 mmol/h

Same assay, conditions: 55 °C; part of the chain shown

Protein | Proxy for plastic degradation
B5 | 0.8 mmol/h

Same assay, conditions: 60 °C; part of the chain shown

Protein | Proxy for plastic degradation
B5 | 0.9 mmol/h

Same assay, conditions: 65 °C; part of the chain shown

Protein | Proxy for plastic degradation
B5 | 1.1 mmol/h

Same assay, conditions: 70 °C; part of the chain shown

Protein | Proxy for plastic degradation
B5 | 1.4 mmol/h

Same assay, conditions: 75 °C; part of the chain shown

Protein | Proxy for plastic degradation
B5 | 1.7 mmol/h

Same assay, conditions: 80 °C; part of the chain shown

Protein | Proxy for plastic degradation
B5 | 1.65 mmol/h

Same assay, conditions: 85 °C; part of the chain shown

Protein | Proxy for plastic degradation
B5 | 0.9 mmol/h

Each protein was assayed on PET (assay: Proxy for plastic degradation [Released monomer concentration (HPLC/LC-MS) (TPA+MHET)]). Conditions: pH 8; 0 h.

Protein | Proxy for plastic degradation
B6 | 0 mM

Same assay, conditions: pH 8; 4 h

Protein | Proxy for plastic degradation
B6 | 3 mM

Same assay, conditions: pH 8; 8 h

Protein | Proxy for plastic degradation
B6 | 7 mM

Same assay, conditions: pH 8; 16 h

Protein | Proxy for plastic degradation
B6 | 29 mM

From the PETadex activity labels (doi:10.1002/cssc.202101062)
